Assay [1] relates to myofibers. The assay can be described thus: Bleb formation and intracellular Ca2+ fluorescence (GCaMP5G, Fluo-4) after laser injury with annexin overexpression. In kind it is cell-based, mouse. To be noted: for internal GCaMP5G Ca2+ fluorescence at the site of injury: vs GCaMP5G alone. As for the experimental part:
(§1) Electroporation, myofiber isolation, laser injury, cap and vesicle measurement. Flexor digitorum brevis (FDB) fibers were transfected with endo-free plasmid DNA by in vivo electroporation. Methods were described previously in (Demonbreun and McNally, 2015; Demonbreun et al., 2016b; DiFranco et al., 2009). Z-stack projections were acquired from consecutive acquisitions after the final time-lapse frame, approximately 4 minutes post damage, with a […] step size between slices. Z-stack renderings were constructed in FIJI. Measurement of the cap area and feret diameter were conducted from a single slice near the middle of the z-stack using FIJI imaging tools. Fibers expressing similar levels of tagged or GCaMP5G protein were compared. GCaMP5G Ca^2+ fluorescence was measured from the acquired timelapse images, using a standard rectangular ROI, placed inside the myofiber below the site of damage using FIJI. Fluorescence was expressed as F/F0. External vesicle number and GCaMP5G area were measured from endpoint z-stacks and max projection images using FIJI. Vesicles were considered external if they were found outside the sarcolemma assessed in brightfield and fluorescent channels. All measurements were acquired from myofibers isolated from at least n≥3 mice, n≥3 myofibers per mouse.
as §1, with “(Demonbreun A R, Quattrocelli M, Barefield D Y, Allen M V, Swanson K E,” for “(Demonbreun”, “McNally E M. An actin-dependent annexin complex mediates plasma membrane repair in muscle. The Journal of cell biology. 2016; 213(6):705-18; Demonbreun A R, and McNally E M. DNA Electroporation, Isolation and Imaging of Myofibers. Journal of visualized experiments: JoVE.” for “McNally,”, “106(106):e53551;” for “Demonbreun et al., 2016b;”, “M, Quinonez M, Capote J, and Vergara J. DNA transfection of mammalian skeletal muscles using in vivo electroporation. Journal of visualized experiments: JoVE. 2009; 32(32)).” for “et al., 2009).”
Calcium and pH indicator dye measurements. Wildtype FDBs were isolated and plated in Ringers on Matek glass-bottom dishes as described above. Twenty minutes prior to imaging, myofibers were loaded with Fluo-4 AM at 37° C. (F10489, ThermoFisher Scientific, Waltham, Mass.) or pHrodo AM (P35373, ThermoFisher Scientific, Waltham, Mass.) as described in the instruction manual. Fibers were rinsed once with Ringers then subsequently damaged and imaged on the Nikon A1R GaSP, as described above. Fluorescence intensity was measured using FIJI (NIH). phRodo change in fluorescence intensity was calculated as F/F0. Data was acquired from n=3 mice per experiment from multiple myofibers per mouse. […]

Assay [2] has as its system Sgcg-null mice. Briefly: Anti-HIS immunofluorescence localization after systemic injection, Sgcg-null versus wildtype. In kind it is in vivo, mouse. As to the method:
Immunofluorescence microscopy. Mice were systemically injected with recombinant annexin A6 with a C-terminal HIS tag (R&D). Muscle was harvested and flash frozen. Muscle sections (10 μm thick) from the center of frozen-embedded muscles were collected on the cryostat (chamber, −20° C.; sample, −15° C.; catalog number CM1950; Leica, Wetzlar, Germany) for immunostaining. Tissues were fixed with 4% paraformaldehyde for 10 minutes on ice. Block and permeabilization were with 0.1% Triton (catalog number X-100; Sigma-Aldrich), 10% fetal bovine serum, and PBS for 60 minutes. For laminin detection, anti-laminin antibody was used at a dilution of 1:100 and for HIS detection, anti-HIS antibody was used at 1:100 overnight at 4° C. Hoechst labelled nuclei. Sections were PBS rinsed, incubated with secondary antibody for 1 hour, PBS rinsed, and mounted. Imaging was performed using a Zeiss Axio Observer A1 microscope (Zeiss, Oberkochen, Germany).

Entries after “also recorded” stand apart in the source; their conditions may differ.

B1: annexin A6: annexin A6 with carboxyl-terminal turboGFP or tdTomato tag, expressed from plasmid electroporated into myofibers (protein, UniProt P14824 2-673, looked up)
Annexin A6: AKIAQGAMYRGSVHDFPEFDANQDAEALYTAMKGFGSDKESILELITSRSNKQRQEICQNYKSLYGKDLIEDLKYELTGKFERLIVNLMRPLAYCDAKEIKDAISGVGTDEKCLIEILASRTNEQMHQLVAAYKDAYERDLESDIIGDTSGHFQKMLVVLLQGTRENDDVVSEDLVQQDVQDLYEAGELKWGTDEAQFIYILGNRSKQHLRLVFDEYLKTTGKPIEASIRGELSGDFEKLMLAVVKCIRSTPEYFAERLFKAMKGLGTRDNTLIRIMVSRSELDMLDIREIFRTKYEKSLYSMIKNDTSGEYKKALLKLCGGDDDAAGQFFPEAAQVAYQMWELSAVSRVELKGTVCAANDFNPDADAKALRKAMKGIGTDEATIIDIVTHRSNAQRQQIRQTFKSHFGRDLMADLKSEISGDLARLILGLMMPPAHYDAKQLKKAMEGAGTDEKTLIEILATRTNAEIRAINEAYKEDYHKSLEDALSSDTSGHFRRILISLATGNREEGGENRDQAQEDAQVAAEILEIADTPSGDKTSLETRFMTVLCTRSYPHLRRVFQEFIKKTNYDIEHVIKKEMSGDVKDAFVAIVQSVKNKPLFFADKLYKSMKGAGTDEKTLTRVMVSRSEIDLLNIRREFIEKYDKSLHQAIEGDTSGDFMKALLALCGGED
modifications: C-terminal turboGFP or tdTomato tag
notes: annexin A6 with carboxyl-terminal turboGFP or tdTomato tag, expressed from plasmid electroporated into myofibers
Consider B1, for which the “internal Fluo-4 Ca2+ fluorescence at the site of membrane injury” value in assay [1] (annexin A6 overexpression vs control myofibers) is reported as “Reduction; also recorded: significantly decreased”. In addition, the “size of GCaMP5G-containing blebs” value in assay [1] (annexin overexpression vs annexin A1, A2 or GCaMP5G alone) was “significantly larger”. In addition, the “number of extracellular (GCaMP5G-positive) blebs at the membrane lesion” value in assay [1] (annexin overexpression vs annexin A1 overexpression or GCaMP5G alone) is listed as “significantly more blebs”. Further, the “internal GCaMP5G Ca2+ fluorescence at the site of injury” value in assay [1] (first 20 seconds post injury) is “significant reduction”; in assay [1] (over 240 seconds of imaging) it was “most significant reduction”; in assay [1] (over 240 seconds of imaging, listed as A6), “significant reduction”.

B2: recombinant annexin A6: recombinant human annexin A6 protein with C-terminal HIS tag (5186-A6-050, R&D systems); mouse protein from Northwestern core in one cohort (protein, UniProt P08133 2-673, looked up)
Annexin A6: AKPAQGAKYRGSIHDFPGFDPNQDAEALYTAMKGFGSDKEAILDIITSRSNRQRQEVCQSYKSLYGKDLIADLKYELTGKFERLIVGLMRPPAYCDAKEIKDAISGIGTDEKCLIEILASRTNEQMHQLVAAYKDAYERDLEADIIGDTSGHFQKMLVVLLQGTREEDDVVSEDLVQQDVQDLYEAGELKWGTDEAQFIYILGNRSKQHLRLVFDEYLKTTGKPIEASIRGELSGDFEKLMLAVVKCIRSTPEYFAERLFKAMKGLGTRDNTLIRIMVSRSELDMLDIREIFRTKYEKSLYSMIKNDTSGEYKKTLLKLSGGDDDAAGQFFPEAAQVAYQMWELSAVARVELKGTVRPANDFNPDADAKALRKAMKGLGTDEDTIIDIITHRSNVQRQQIRQTFKSHFGRDLMTDLKSEISGDLARLILGLMMPPAHYDAKQLKKAMEGAGTDEKALIEILATRTNAEIRAINEAYKEDYHKSLEDALSSDTSGHFRRILISLATGHREEGGENLDQAREDAQVAAEILEIADTPSGDKTSLETRFMTILCTRSYPHLRRVFQEFIKMTNYDVEHTIKKEMSGDVRDAFVAIVQSVKNKPLFFADKLYKSMKGAGTDEKTLTRIMVSRSEIDLLNIRREFIEKYDKSLHQAIEGDTSGDFLKALLALCGGED
modifications: C-terminal His tag
notes: recombinant human annexin A6 protein with C-terminal HIS tag (5186-A6-050, R&D systems); mouse protein from Northwestern core in one cohort
B2: the “anti-HIS immunofluorescence at the muscle membrane” value in assay [2] (Sgcg-null (LGMD2C) muscle) was “localized to the muscle membrane”; in assay [2] (Sgcg-null (LGMD2C) muscle, listed as rANXA6), “increased”; in assay [2] (uninjured wildtype muscle), “minimal”.

For the origin of these results see patent US20220143136A1, “USE OF ANNEXINS IN PREVENTING AND TREATING MUSCLE MEMBRANE INJURY” (NORTHWESTERN UNIVERSITY, priority 2018, published 2022).
